# Test results from US20210130452A1 (Merck KGaA, published 2021).
# “And” between values parts separate entries of the source, which are not always exact repeats. Equal entries are not always repeated. Where two headings read alike, the source gives them in different places.
# T1: human IL-17F (human, UniProt Q96PD4 31-163)
# T1 construct: made in Hek293 cells (GenBank AF384857); also called hIL-17F; hIL17F
# T1 sequence: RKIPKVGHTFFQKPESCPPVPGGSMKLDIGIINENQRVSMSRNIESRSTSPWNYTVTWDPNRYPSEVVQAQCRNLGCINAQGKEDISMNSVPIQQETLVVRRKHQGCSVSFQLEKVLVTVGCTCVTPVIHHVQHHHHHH
# T2: Cynomolgus monkey IL-17F (Cynomolgus monkey, UniProt G7P4V0 31-163)
# T2 construct: also called cyno IL-17F; cIL-17F
# T2 sequence: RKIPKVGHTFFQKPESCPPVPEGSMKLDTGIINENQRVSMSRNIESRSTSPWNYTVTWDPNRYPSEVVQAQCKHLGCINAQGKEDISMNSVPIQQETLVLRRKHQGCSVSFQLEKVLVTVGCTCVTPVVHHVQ
# Key:
# human IL-17F [1] = target: T1, human IL-17F; experiment: SPR (Biacore) off-rate
# [2] = target: T3, human IL-17A/F heterodimer (human, UniProt Q16552 24-155; Q96PD4 31-163, limits assumed); experiment: SPR (Biacore) off-rate
# T3 construct: bought, made in E. coli (R&D Systems 5194-IL/CF); also called hIL-17A/F; hIL17A/F
# Target sequence in this assay (Q16552 24-155 limits assumed, chain 1 of 2, one chain of several): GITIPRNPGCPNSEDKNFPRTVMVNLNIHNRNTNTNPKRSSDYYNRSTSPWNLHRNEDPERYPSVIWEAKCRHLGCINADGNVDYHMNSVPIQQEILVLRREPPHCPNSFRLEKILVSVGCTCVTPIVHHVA
# human IL-17F [3] = target: T1, human IL-17F; experiment: SPR (Biacore) off-rate; remark: listed apart in the source
# [4] = target: T3, human IL-17A/F heterodimer; experiment: SPR (Biacore) off-rate; remark: listed apart in the source
# Target sequence in this assay (Q16552 24-155 limits assumed, one chain of several): as the sequence (Q16552 24-155 limits assumed, chain 1 of 2, one chain of several) above
# Cynomolgus monkey IL-17F [5] = target: T2, Cynomolgus monkey IL-17F; experiment: SPR (Biacore) off-rate
# human IL-17F [6] = target: T1, human IL-17F; experiment: cell-based or functional assay
# [7] = target: T3, human IL-17A/F heterodimer; experiment: cell-based or functional assay
# Target sequence in this assay (Q16552 24-155 limits assumed, one chain of several): as the sequence (Q16552 24-155 limits assumed, chain 1 of 2, one chain of several) above
# Cynomolgus monkey IL-17F [8] = target: T2, Cynomolgus monkey IL-17F; experiment: cell-based or functional assay
# human IL-17F [9] = target: T1, human IL-17F; experiment: AlphaScreen IL-17F-IL-17RC; reference itself
# human IL-17F [10] = target: T1, human IL-17F; experiment: AlphaScreen IL-17F-IL-17RC; reference itself; remark: listed apart in the source
binder,measurement,setting,value
"IL17MS16A04 (VHH, Class 3 Nanobody, wild type; also called WT) VHH: EVQLVESGGGLVQAGGSLRLSCAASGRTFSSYVVGWFRQAPGKEREFIGAISGSGDSIYYAVSEKDRFTISRDNGKNTLYLQMSSLKAEDTAVYYCTADQEFGYLRFGRSEYWGQGTQVTVSS",koff,human IL-17F [1],0.000405 s⁻¹
same,koff,[2],0.0024 s⁻¹
same,koff,human IL-17F [3],0.000382 s⁻¹ and 0.00041 s⁻¹
same,koff,[4],0.00239 s⁻¹ and 0.0025 s⁻¹
same,koff,Cynomolgus monkey IL-17F [5],0.000636 s⁻¹
same,IC50 cell based assay hIL-17F,human IL-17F [6],28 nM
same,IC50 cell based assay hIL-17A/F,[7],8 nM
same,IC50 cell based assay cyno IL-17F,Cynomolgus monkey IL-17F [8],7.3 nM
same,IC50 fold difference vs WT,human IL-17F [9],1 fold
same,IC50 fold difference vs WT,human IL-17F [10],1 fold
